# According to the RNAGym collection of RNA variant scans (doi:10.7554/elife.80360):
# B1: CPEB3 Ribozyme (parent)
# chain: GGGGGCCACAGCAGAAGCGUUCACGUCGCGGCCCCUGUCAGAUUCUGGUGAAUCUGCGAAUUCUGCUGU
# Variants of: B1
# Assay: self-cleavage, relative activity (ratio to wild type); higher = more cleavage; co-transcriptional
row,Variant,self-cleavage
1,GGGGGCCACAGCAGAAGCGGUCACGUCGCGGCCCCUGUCAAAUUCUGGUGAAUCUGCGAAUUCUGCUGU [U20G G41A],0.127
2,GGGGGCCACAGCAGAAGCGGUCACGUCGCGGCCCCUGUCACAUUCUGGUGAAUCUGCGAAUUCUGCUGU [U20G G41C],0.0984
3,GGGGGCCACAGCAGAAGCGGUCACGUCGCGGCCCCUGUCAUAUUCUGGUGAAUCUGCGAAUUCUGCUGU [U20G G41U],0.194
4,GGGGGCCACAGCAGAAGCGGUCACGUCGCGGCCCCUGUCAGAUUCUGGUGGAUCUGCGAAUUCUGCUGU [U20G A51G],0.193
5,GGGGGCCACAGCAGAAGCGCUCACGUCGCGGCCCCUGUCAGAUUCUGGUGAAUCUGCGAAUCCUGCUGU [U20C U62C],0.204
6,GGGGGCCACAGCAGAAGCGCUCACGUCGCGGCCCCUGUCAGAUUCUGGUGAAUCUGCGAAUUCUGCUGC [U20C U69C],0.427
7,GGGGGCCACAGCAGAAGCGCUCACGUCGCGGCCCCUGUCAGAUUCUGGUGAAUCUGCGAAUUCUGCUGA [U20C U69A],0.124
8,GGGGGCCACAGCAGAAGCGGUCACGUCGCGGCACCUGUCAGAUUCUGGUGAAUCUGCGAAUUCUGCUGU [U20G C33A],0.135
9,GGGGGCCACAGCAGAAGCGGUCACGUCGCGGCGCCUGUCAGAUUCUGGUGAAUCUGCGAAUUCUGCUGU [U20G C33G],0.261
10,GGGGGCCACAGCAGAAGCGGUCACGUCGCGGCCGCUGUCAGAUUCUGGUGAAUCUGCGAAUUCUGCUGU [U20G C34G],0.28
11,GGGGGCCACAGCAGAAGCGGUCACGUCGCGGCCUCUGUCAGAUUCUGGUGAAUCUGCGAAUUCUGCUGU [U20G C34U],0.268
12,GGGGGCCACAGCAGAAGCGGUCACGUCGCGGCCCAUGUCAGAUUCUGGUGAAUCUGCGAAUUCUGCUGU [U20G C35A],0.218
13,GGGGGCCACAGCAGAAGCGGUCACGUCGCGGCCCUUGUCAGAUUCUGGUGAAUCUGCGAAUUCUGCUGU [U20G C35U],0.171
14,GGGGGCCACAGCAGAAGCGGUCACGUCGCGGCCCGUGUCAGAUUCUGGUGAAUCUGCGAAUUCUGCUGU [U20G C35G],0.184
15,GGGGGCCACAGCAGAAGCGGUGACGUCGCGGCCCCUGUCAGAUUCUGGUGAAUCUGCGAAUUCUGCUGU [U20G C22G],0.192
16,GGGGGCCACAGCAGAAGCGGUAACGUCGCGGCCCCUGUCAGAUUCUGGUGAAUCUGCGAAUUCUGCUGU [U20G C22A],0.249
17,GGGGGCCACAGCAGAAGCGGUCACGUCGCGGCCCCUGUCAGAUUUUGGUGAAUCUGCGAAUUCUGCUGU [U20G C45U],0.202
18,GGGGGCCACAGCAGAAGCGGUCACGUCGCGGCCCCUGUCAGAUUGUGGUGAAUCUGCGAAUUCUGCUGU [U20G C45G],0.11
19,GGGGGCCACAGCAGAAGCGGUCACGUCGCGGCCCCUGUCAGAUUAUGGUGAAUCUGCGAAUUCUGCUGU [U20G C45A],0.221
20,GGGGGCCACAGCAGAAGCGGUCACGUCACGGCCCCUGUCAGAUUCUGGUGAAUCUGCGAAUUCUGCUGU [U20G G28A],0.186
21,GGGGGCCACAGCAGAAGCGGUCACGUCCCGGCCCCUGUCAGAUUCUGGUGAAUCUGCGAAUUCUGCUGU [U20G G28C],0.145
22,GGGGGCCACAGCAGAAGCGCUCACGUCGCGGCCCCUGUCAGAUUCUGGUGAACCUGCGAAUUCUGCUGU [U20C U53C],0.161
23,GGGGGCCACAGCAGAAGCGGUCACGUCGCGGCCCCUAUCAGAUUCUGGUGAAUCUGCGAAUUCUGCUGU [U20G G37A],0.173
24,GGGGGCCACAGCAGAAGCGGUCACGUCGCGGCCCCUCUCAGAUUCUGGUGAAUCUGCGAAUUCUGCUGU [U20G G37C],0.151
25,GGGGGCCACAGCAGAAGCGGUCACGUCGCGGCCCCUGUCAGGUUCUGGUGAAUCUGCGAAUUCUGCUGU [U20G A42G],0.079
26,GGGGGCCACAGCAGAAGCGGUCACGUCGCGGCCCCUGUCAGCUUCUGGUGAAUCUGCGAAUUCUGCUGU [U20G A42C],0.279

row,Variant,self-cleavage
1,GGGGGCCACAGCAGAAGCGGUCACGUCGCGGCCCCUGUCAGUUUCUGGUGAAUCUGCGAAUUCUGCUGU [U20G A42U],0.216
2,GGGGGCCACAGCAGAAGCGGUCACGUCGCGGCCCCUGUCAGAUUCUGGUGAAUCUGCGUAUUCUGCUGU [U20G A59U],0.176
3,GGGGGCCACAGCAGAAGCGGUCACGUCGCGGCCCCUGUCAGAUUCUGGUGAAUCUGCGGAUUCUGCUGU [U20G A59G],0.204
4,GGGGGCCACAGCAGAAGCGGUCACGUCGCGGCCCCUGUCAGAUUCUGGUGAAUCUGCGAAUUCUGUUGU [U20G C66U],0.216
5,GGGGGCCACAGCAGAAGCGGUCACGUCGCGGCCCCUGUCAGAUUCUGGUGACUCUGCGAAUUCUGCUGU [U20G A52C],0.148
6,GGGGGCCACAGCAGAAGCGGUCACGUCGCGGCCCCUGUCAGAUUCUGGUGAGUCUGCGAAUUCUGCUGU [U20G A52G],0.292
7,GGGGGCCACAGCAGAAGCGGUCACGUCGCGGCCCCUGUCAGAUUCUGGUGAUUCUGCGAAUUCUGCUGU [U20G A52U],0.183
8,GGGGGCCACAGCAGAAGCGGUCACAUCGCGGCCCCUGUCAGAUUCUGGUGAAUCUGCGAAUUCUGCUGU [U20G G25A],0.129
9,GGGGGCCACAGCAGAAGCGGUCACUUCGCGGCCCCUGUCAGAUUCUGGUGAAUCUGCGAAUUCUGCUGU [U20G G25U],0.185
10,GGGGGCCACAGCAGAAGCGGUCACGUCGAGGCCCCUGUCAGAUUCUGGUGAAUCUGCGAAUUCUGCUGU [U20G C29A],0.198
11,GGGGGCCACAGCAGAAGCGGUCACGUCGGGGCCCCUGUCAGAUUCUGGUGAAUCUGCGAAUUCUGCUGU [U20G C29G],0.128
12,GGGGGCCACAGCAGAAGCGGUCACGUCGCGGCCCCUGUCAGAUUCUGAUGAAUCUGCGAAUUCUGCUGU [U20G G48A],0.127
13,GGGGGCCACAGCAGAAGCGGUCACGUCGCGGCCCCUGUCAGAUUCUGUUGAAUCUGCGAAUUCUGCUGU [U20G G48U],0.141
14,GGGGGCCACAGCAGAAGCGGUCGCGUCGCGGCCCCUGUCAGAUUCUGGUGAAUCUGCGAAUUCUGCUGU [U20G A23G],0.32
15,GGGGGCCACAGCAGAAGCGGUCCCGUCGCGGCCCCUGUCAGAUUCUGGUGAAUCUGCGAAUUCUGCUGU [U20G A23C],0.196
16,GGGGGCCACAGCAGAAGCGGUCUCGUCGCGGCCCCUGUCAGAUUCUGGUGAAUCUGCGAAUUCUGCUGU [U20G A23U],0.243
17,GGGGGCCACAGCAGAAGCGGUCACGUCGCGGUCCCUGUCAGAUUCUGGUGAAUCUGCGAAUUCUGCUGU [U20G C32U],0.157
18,GGGGGCCACAGCAGAAGCGGUCACGUCGCGGACCCUGUCAGAUUCUGGUGAAUCUGCGAAUUCUGCUGU [U20G C32A],0.218
19,GGGGGCCACAGCAGAAGCGGUCACGUCGCGCCCCCUGUCAGAUUCUGGUGAAUCUGCGAAUUCUGCUGU [U20G G31C],0.134
20,GGGGGCCACAGCAGAAGCGGUCACGUCGCGACCCCUGUCAGAUUCUGGUGAAUCUGCGAAUUCUGCUGU [U20G G31A],0.155
21,GGGGGCCACAGCAGAAGCGGUCACGUCGCGGCCCCUGUCAGAUUCUGGUGAAUCUGCGAAUUUUGCUGU [U20G C63U],0.246
22,GGGGGCCACAGCAGAAGCGGUCACGUCGCGGCCCCUGUCAGAUUCUGGUGAAUCUGCGAAUUGUGCUGU [U20G C63G],0.21
23,GGGGGCCACAGCAGAAGCGGUCACGUCGCGGCCCCUGUCGGAUUCUGGUGAAUCUGCGAAUUCUGCUGU [U20G A40G],0.169
24,GGGGGCCACAGCAGAAGCGGUCACGUCGCGGCCCCUGUCUGAUUCUGGUGAAUCUGCGAAUUCUGCUGU [U20G A40U],0.134
25,GGGGGCCACAGCAGAAGCGGUCACGUCGCGGCCCCUGUCCGAUUCUGGUGAAUCUGCGAAUUCUGCUGU [U20G A40C],0.243
26,GGGGGCCACAGCAGAAGCGCUCACGUCGCGGCCCCUGUCAGAUUCUGGUGAAUCUGCGAAAUCUGCUGU [U20C U61A],0.236

row,Variant,self-cleavage
1,GGGGGCCACAGCAGAAGCGCUCACGUCGCGGCCCCUGUCAGAUUCUGGUGAAUCUGCGAACUCUGCUGU [U20C U61C],0.182
2,GGGGGCCACAGCAGAAGCGGUCACGUCGCGGCCCCUGUCAGAUUCUGGUGAAUCUGCGAGUUCUGCUGU [U20G A60G],0.0625
3,GGGGGCCACAGCAGAAGCGGUCACGUCGCGGCCCCUGUCAGAUUCUGGUGAAUCUGCGACUUCUGCUGU [U20G A60C],0.191
4,GGGGGCCACAGCAGAAGCGGUCACGUCGCGGCCCCUGUCAGAUUCUGGUGAAUCUGCGAUUUCUGCUGU [U20G A60U],0.073
5,GGGGGCCACAGCAGAAGCGGUCACGUCGCGGCCCCUGUCAGAUUCUGGUAAAUCUGCGAAUUCUGCUGU [U20G G50A],0.206
6,GGGGGCCACAGCAGAAGCGCUCACGUCGCGGCCCCUGUCAGAUUCUGGUGAAUCAGCGAAUUCUGCUGU [U20C U55A],0.175
7,GGGGGCCACAGCAGAAGCGGUCACGUCGCGGCCCCUGUCAGAUUCUGGUGAAUAUGCGAAUUCUGCUGU [U20G C54A],0.203
8,GGGGGCCACAGCAGAAGCGGUCACGUCGCGGCCCCUGUCAGAUUCUGGUGAAUGUGCGAAUUCUGCUGU [U20G C54G],0.118
9,GGGGGCCACAGCAGAAGCGGUCACGUCGCGGCCCCUGUCAGAUUCUGGUGAAUUUGCGAAUUCUGCUGU [U20G C54U],0.196
10,GGGGGCCACAGCAGAAGCGCUCACGUCGCGGCCCCUGUCAGAUUCUGGUGAAUCUGCGAAUUCUGCAGU [U20C U67A],0.233
11,GGGGGCCACAGCAGAAGCGCUCACGUCGCGGCCCCUGUCAGAUUCUGGUGAAUCUGCGAAUUCUGCGGU [U20C U67G],0.164
12,GGGGGCCACAGCAGAAGCGGUCACGUCGCGGCCCCUGUCAGAUUCUGGUGAAUCUGCGAAUUCUGCUGU [U20G],0.207
13,GGGGGCCACAGCAGAAGCGGUCACGUUGCGGCCCCUGUCAGAUUCUGGUGAAUCUGCGAAUUCUGCUGU [U20G C27U],0.0848
14,GGGGGCCACAGCAGAAGCGGUCACGUCGCGGCCCCUGUCAGAUUCUAGUGAAUCUGCGAAUUCUGCUGU [U20G G47A],0.247
15,GGGGGCCACAGCAGAAGCGGUCACGUCGCGGCCCCUGUCAGAUUCUUGUGAAUCUGCGAAUUCUGCUGU [U20G G47U],0.226
16,GGGGGCCACAGCAGAAGCGGUCACGUCGCGGCCCCUGUCAGAUUCUCGUGAAUCUGCGAAUUCUGCUGU [U20G G47C],0.189
17,GGGGGCCACAGCAGAAGCGCUCACGUCGCGGCCCCUGUCAGAUUCUGGUGAAUCUGCGAAUUCGGCUGU [U20C U64G],0.104
18,GGGGGCCACAGCAGAAGCGCUCACGUCGCGGCCCCUGUCAGAUUCUGGUGAAUCUGCGAAUUCAGCUGU [U20C U64A],0.167
19,GGGGGCCACAGCAGAAGCGCUCACGUCGCGGCCCCUGUCAGAUUCUGGUGAAUCUGCGAAUUCCGCUGU [U20C U64C],0.278
20,GGGGGCCACAGCAGAAGCGGUCACGUCGCGGCCCCUGUUAGAUUCUGGUGAAUCUGCGAAUUCUGCUGU [U20G C39U],0.0993
21,GGGGGCCACAGCAGAAGCGGUCACGUCGCGGCCCCUGUGAGAUUCUGGUGAAUCUGCGAAUUCUGCUGU [U20G C39G],0.23
22,GGGGGCCACAGCAGAAGCGGUCACGUCGCGGCCCCUGUAAGAUUCUGGUGAAUCUGCGAAUUCUGCUGU [U20G C39A],0.169
23,GGGGGCCACAGCAGAAGCGGUCACGUCGCGGCCCCUGUCAGAUUCUGGUGAAUCUGUGAAUUCUGCUGU [U20G C57U],0.143
24,GGGGGCCACAGCAGAAGCGGUCACGUCGCAGCCCCUGUCAGAUUCUGGUGAAUCUGCGAAUUCUGCUGU [U20G G30A],0.126
25,GGGGGCCACAGCAGAAGCGGUCAUGUCGCGGCCCCUGUCAGAUUCUGGUGAAUCUGCGAAUUCUGCUGU [U20G C24U],0.144
26,GGGGGCCACAGCAGAAGCGGUCAGGUCGCGGCCCCUGUCAGAUUCUGGUGAAUCUGCGAAUUCUGCUGU [U20G C24G],0.146
